Measured values reported in the nanobody polyreactivity screen of Harvey et al. (2022).

Test: yeast display, Sf9 membrane polyspecificity reagent, FACS + sequencing; frameworks hold sequencing errors
How it was run: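 A nanobody's polyreactivity label depends on the gate it was sorted from. Yeast display cells were stained with 10% biotinylated, detergent-solubilized Sf9 membrane reagent for 1 hour at 4 °C, enriched on streptavidin microbeads and sorted by FACS. The low and high (top ~1%) gates were set on anti-HA fluorescence for expression and streptavidin fluorescence for reagent binding.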

| Sequence | polyreactivity (PSR sort gate) |
| --- | --- |
| QVQLVESGGGLVQAGGSLRLSCAASGITIKRYPMGWYRQAPGKEREFVATSSQSGTSTYYADSVKGRFTISRDNAKYTVYLQLNSLKPEDTAVYYCAADYIGYWYGYYSWGQGTQVTVSS | low polyreactivity |
| QVQLVESGGGLVQAGGSLRLSCAASGRIFYPYAMGWYRQAPGKERELVAAIRWSSGNTRYADSVKGRFTISRDNAKNTVYLQMNSLKPEDTAVYYCAAPAVHILQTVSLTPRPLDYWGQGTQVTVSS | high polyreactivity |
| QVQLVESGGGLVQAGGSLRLSCAASGIICYENTMGWYRQAPGKERELVAAINSGGSTYYADSVKGRFTISRDNAKNTVYLQMNSLKPEDTAVYYCAADDYSGLYYSSTYRYEYWGQGTQVTVSS | low polyreactivity |
| QVQLVESGGGLVQAGGSLRLSCAASGIIFDSYAMGWYRQAPGKERELVAAITSDSGRTYYADSVKGRFTISRDNAKKTVYLQMNSLKPEYTAVYYFAKRWDGPYDYWGQGTQVTVSS | low polyreactivity |
| QVQLVESGGGLVQAGGSLRLSCAASGFTFLHNAMGWYRQAPGKDRELVAAISYSGGSTYADSVKGRFTISRDNAKYTVYLQMNSLKPEDTADYYCNADYSSQDNFDYWGQGTQVTVSS | low polyreactivity |
| QVQFVESGGALVQAGGSLRLSCAASGSTFQGYAMGWYRQAPGKETELVAAISRSGGRTYYADSVTGRFTISRDNAKNTVYLQMISLKPEDTAVYYCAAEGHELTDGDSWGQGTQVTVSS | low polyreactivity |
| QVQLVESGGGLVQAGGSLRLSCAASGFTFRYYAMGWYRQAPGKERELVATITSGGRTYYADSVKGRFTISRDNAKNTVYLQMNSLKPEDTAVYYCAADVWYVRTKYGYDYWGQGTQVTVSS | high polyreactivity |
| QVQLVESGGGLVQAGGSIRLICAASGFIISWYAMGWYRQAPGKERELFAAISSGGSTTYADSVKGRFTISRDNAKNTVYLQMNSLKPEDTAVYYCNADQVYGYNYWGQGTQVTVSS | high polyreactivity |
| QVQLVESGGGLVQAGGSLRLSCAASGSIFNLYAMGWYRQAPGKERELVATITWSGGSTYYADSVKGRFTISRDNAKNTVYLQMNSLKPEDTAVYYCAATALEWYPAVYNQYYYWGQGTQVTVSS | low polyreactivity |
| QVQLVESGGGLVQAGGSLRLSCAASGSIFRRYAMGWYRQAPGKERELVASISSRGTRTYYADSVKGRFTISRDTAKNTVYLQMNSLKPEDTAVYYCAASYYTPYDYWGQGTQVTVSS | high polyreactivity |
| QVQLVESGGGLVQAGGSLRLSCAASGFIIYGYVMGWYRQAPGKERELVAAINSSSGRTYYADSVKGRFTISRDNAKNTVYLQMNSLKPEDTAVYYCAAYYYGSYDGTPYDYRGQGTQVTVSS | low polyreactivity |
| QVQLVESGGGLVQAGGSLRLSCAASGSIIVYNAMGWYRQAPGKERELVAAITGRVGSTYYADSVKGRFTISRDNAKNTVYLQMNSMKPEDTAVYYCAARSYFKWWYAMDYWGQGTQVTVSS | high polyreactivity |
| QVQLVETGGGLVQAGGSLLLSSAASGIIIRYYGMGCYGQAPGTERELVARIRWTGGSTYSADSVKGRFTISRDNAKNTVYLQMNSLKPEDTAVYYCAADIWQYSRIANYHPFDYWGQGTQVTVSS | low polyreactivity |
| QVQLEESGGGLVQAGGSLRLSCAASGSTFGPNTMGRYRQAPGKERELVAAISRAGRTYYADSVKGRFTISRDNAKNTVYLQINSLKPEDTAVYYCNAGRSYHWRAGREYDYWGQGTQVTVSS | low polyreactivity |
| QVQLVESGGGLVQAGGSLRLSCAASGITFSAYAMGWYRQAPGKERELVAAISWSGGNTYYADSVKGRFTISRDNAKNTVYLQMNSLKPEDTAVYYCAAEREAYNTWFDYWGQGTQVTVSS | high polyreactivity |
| QVQLVESGGGLVQAGGSLRLSCAASGSIFGWYAMGWYRQAPGKERELVATISSGGGNTYYADSVKGRFTISRDNAKNTVYLQMNSLKPEDTAVYYCAADRTFYGIRFDYWGQGTQVTVSS | low polyreactivity |
| QVQLVESGGGLVQAGGSLRLSCAASGRTFLVFAMGWYRQAPGKERELVAAITRDDNTNYADSVKGRFTISRDNAKNTVYLQMNSLKPEDTAVDYCAADALVYRLGNYYFIFDYWGQGTEVTVSS | low polyreactivity |
| QVQLVESGGGLVQAGGSLRLSCAASGRIFTRNAMGWYRQAPGKERELVAAITSGGSTNYADSVKGRFTISRDNAKNTVYLQMNSLKPEDTAVYYCNAVYYPYRIWGRVRPSYGYWGQGTQVTVSS | high polyreactivity |
| QVQLVESGGGLVQAGGSLRLSCAASGSTSDINAMGWYRQAPGKERELVAVITFSGGSTNYADSVKGRFTISRDNAKNTVYLQMNSLKPEDTAVYYCSTSGQLYYSRNFDYWGQGTQVTVSS | low polyreactivity |
| QVQLVESGGGLVQAGGSLRLSCAASGNIFYIYAMGWYRQAPGKERELVASISGRGGRTYYADSVKGRFTISRDNAKNTVYLQMNSLKPEDTAVYYCAADGYRTYSEMDYWGQGTQVTVSS | high polyreactivity |
| HVQLVDSGGVLVQAGGSLRLSCAASGSIYDANAMGRYRQAPGKERELVAAISSSGGITYYADSVKGRFTISRDNAKNTVYLQMNSLKPEDTAVYYCVAEYGYIDYSYLFWSDYWGQGTQVTVSS | high polyreactivity |
| QVQLVESGGGLVQAGGSLRLSCAASGRIFTTYAMGWYRQAPGKERELVARISSGGTTYYADSVKGRFTISRDNAKNTVYLQMNSLKPEDTAVYYCNVRAVTPTRSRPFRYDYWGQGTQVTVSS | high polyreactivity |

| Sequence | polyreactivity (PSR sort gate) |
| --- | --- |
| QVQLVESGGGFVQAGGSLRLSCPPSGRIIQAYAMAWYRQSPGKERELVAAISRSGGGTYYADSVKVRFTISRDNAKNTVYFLMNSLKPEDTAVSYCNAYYYYYTARWTQVNYWGQGTQVTVSS | high polyreactivity |
| QVQLVESGGGLVQAGGSLRLSCAASGFTFYRYAMGWYRQAPGKERELVAAITWSGGSTYYADSVKGRFTISRDNAKNTVYLQMNSLKPVDTAVYYCAADIYDGGFDYWGQGTQVTVSS | low polyreactivity |
| QDQHVESGGGLVQAGGSLRLSCAASGITFNKYAMGWYRQAPGKERELVAAISFSGGSTYYADSVKGRFTISRDNAKNTVYLQMNSLKPEVTAVYYCAAVWGYVIWVDTAVYREYDYWGQGTQVTVSS | high polyreactivity |
| QVQRVESGGGLFQAGGRLRLSCAASGSISLKYAMGWYRQAPGKERELVATISRGGSTNYADSVKGRFTISRDNAKNTVYIQMNSLKPEDTAVYYCAANYGRPYGTYGYWGQGTQVTVSS | high polyreactivity |
| QVQLVESGGGLVQAGGSLRLSCAASGRTFGINAMGWYRQAPGKDRELVAAIRTGGSTYYADSVKGRFTISRDNAMNTVYLQMNSLKPEDTAVYYCAAKAYRRYTIPPYGYWGQGTQVTVSS | high polyreactivity |
| QVQLVESGGGLVQAGGSLRLSCAASGFIFYHNAMGWYRQAPGKERELVAAISQSGGRTYYADSVKGRFTISRDNAKNTVYLQMNSLKPEDTAGYYCAKRTRVYHPTYDYWGQGTQVTVSS | high polyreactivity |
| QVQLVESGGGLVQAGGSLRLSCAASGRILLFYAMGWYRQAPGKERELVASIDYSGGSTTYADSVKGRFTISRDNAKNTVYLQMNRLKPEDTAVYYCNAEAWWYFWFDYWGQGTQVTVSS | low polyreactivity |
| QVQLEESGGGLVQAGGSLRLSCAATASIFDYYAMGWYRQAPGKERELVAAISGTGGSTYYADSVMGRFTISRDNAKNTVYLQMNSLKPEDTAVYYCNAARVIRTALRNDGTFDYWGQGTQVTVSS | high polyreactivity |
| QVQLVESGGGLVQAGGSLRLSCAASGFTFALNAMGWYRQAPGKERELVAAISFSGTRTYYADSVKGRFTISRDNAKNTVYLQMNSLKPEDTAVYYCAARVWVSDSYYPYYYWGQGTQVTVSS | high polyreactivity |
| QVQLVESGGGLVQAGGSLRLSCAASGRIFYYYAMGWYRQAPGKERELVAAITRRGGSTYYADSVKGRFTISRDNAKNTVYLQLNSLKPEDTAVYYCAKPDRTGWLDGDYWGQGTQVTVSS | low polyreactivity |
| QVQLVESGGGLVQAGGSLRLICAASGLTFLYYTMVWYRQEPGNERELVAAITSGASTNYADSVKGRFTISRDNAKNTVYLQMNSLIPEDTAVYYCAARYVGPFAWYSGYDYWGQGTQVTVSS | low polyreactivity |
| QVQLVESGGGLVHAGGSLRISCAASGSTFPYYAMGWYRQAPVKERELVAAISRSGGSTYYADSVKGRFTISRDNAKNTVYLQMNRLKPEDTAVYYCNARLARWGSYEYNYWGQGTQVNVSS | low polyreactivity |
| QVQLVESGGGLVQAGGSLRLSCAASGRIFAYYAMGWYRQAPGKESELVAAINWSGDGTNYADSVKGRFTISRDNAKNTVYLQMNSLKPVDTAVYYCAARLGHSVNPGGERWDVEYWGQGTQVTVSS | low polyreactivity |
| QVQLVESGGGLVQAGGSLRLSCAASGRTFTNNVMGWYRQAPGKERELVAAITSGGTNYADSVKGRFTISRDNAKNTVYLQMNSLKPEDTAVYYCATDYYDEVTIGYDYWGQGTQVTVSS | low polyreactivity |
| QVQLVESGGGLVQAGGSLRLSCAASGFIFGYNAMGWYRQAPGKEREFVAAISWTGGRTYYADSVKGRFTISRDNAKNTVYLQMNSLKPEDTAVYYCAALRGWLPGTRTRYYYWGQGTQVTVSS | high polyreactivity |
| QVQLVESGGGLVQAGGSLRLSCAASGRIFIIYAMGWYRQAPGKEREFVAAITSSGGSTYYADSVKGRFTISRDNAKNTVYLQMYSLKPEDTAVYYCNKVTRYYREYHRDSQYGYWGQGTQVTVSS | high polyreactivity |
| QVQLVESGGGLVQAGGSLRLSCAASGRTFKYNAMGWYRQAPGKRKELVAAISSGGSTYYADSVKGRFTISRDNAKNTVYLQMNSLKPEDTAVYYCAVRNTKSYWFGYWGQGTQVTVSS | high polyreactivity |
| QVQLVESGGGLVQAGGSLRLSCAASGLTFDYYVMGWYRQAPGKERELVATISWSGDITYYADSVKGRFTISRDNAKNTVYLQMNSLKPEDTAVYYSATDKSYSSWSAQYDYWGQGTQVTVSS | low polyreactivity |
| QVQLVESGGGLVQAGGSLRLSCAASGYTFANNAMGWYRQAPGKERELVAVITWSGDSTYYADSVKGRFTISRDNAKNTVYLQMNSQKAEDTAVYYCAREFSDGLSGKFDYWGQGTQLTVSS | low polyreactivity |
| QVQLVESGGGLVQAGGSLRLSCAASGRIFRSNAMGWYRQAPGKERELVAAITWSGGSTYYADSVKGRFTISRDNAKNTVYLQMNSLKPEDTAVYYCAADGYTAYLPYYWFDYWGQGTQVTVSS | high polyreactivity |
| QVQLVESGGGLVQAGGSLRLSCAASGSIFARNAMGWYRQAPGKERELVASITWSGASTYYADSVKGRFTISRDNAKNTVYVQMNSLKPEDTAVYYCAATDQKLSLDYSSYEYWGQGTQVTVSS | low polyreactivity |
